Laboratory results as given in patent US6759212B1, “Cell cycle-regulating proteins” (Chugai Seiyaku Kabushiki Kaisha, priority 1997, dated 2004).
Values joined by “and” are separate entries in the source; they are usually repeats but may differ in a detail not shown here. Identical values can stand only once.

What was measured:
NRK-49F cells = experiment: Abnormal cytokinesis: cells having two or more nuclei after transient transfection; type: cell-based, rat; settings: 72 hours after transfection
From the text: (§1) To confirm the generality of this observation, AIM-1 (WT) and AIM-1 (K-R) plasmids were transiently expressed in NRK-49F cells and human diploid fibroblast KD cells and the results were compared with those obtained in a control transfected with vector alone. These constructs were transfected into cell-s with a reporter construct […] to prepare β-galactosidase-expressing plasmids for use as a positive internal control for transfection (Table 1).
(§2) (2) Abnormal Cytokinesis in Cells Expressing AIM-1 (K-R) Plasmid FLAG-AIM-1 (WT), FLAG-AIM-1 (K-R) or a control plasmid pEF/hygI was cotransfected with a reporter construct RSV-β-galactosidase at a ratio of 10:1 into NRK-49F cells and human diploid fibroblast KD cells (a kind gift of late Dr. Takeo Kakunaga) by Lipofectin method. After 24 hours, 1×10^3 cells were seeded per 60 mm dish, and 72 hours after transfection, cells were fixed in 1.25% glutaraldehyde/PBS and stained by a method described in literature (Shu et al., J.C.S. 108:2955-62, 1995) to observe expression of β-galactosidase. MvlLu cells were also tested under the conditions described in (1) B above.
(§3) 1. The figures in the table mean the percentage of cells having two or more nuclei to β-galactosidase positive cells for NRK-49F cells and KD cells or the percentage of cells having two or more nuclei to the total number of cells for MvlLu cells. […]

[1] = system: human diploid fibroblast KD cells; experiment: as above; type: cell-based; settings: 72 hours after transfection
From the text: as §1, §2, §3

Mv1Lu cells [2] = experiment: Abnormal cytokinesis: cells having two or more nuclei, tetracycline-inducible expression, Giemsa staining; type: cell-based, mink; settings: for percentage of cells having two or more nuclei to the total number of cells: Mv1Lu, 72 hours
Protocol: (§4) MvlLu cells carrying vector alone, wild-type FLAG-AIM-1 (WT) or FLAG-AIM-1 (K-R) were grown in the presence or absence of doxycycline (tetracycline analog) for 24 hours and then subjected to western blot with anti-FLAG antibody (FIG. 4A). […] In addition, the size of these cells was much larger than normal cells (FIGS. 4Bf and 5D). In these abnormal cells, however, spindle. functions including chromosome disjunction and late anaphase spindle elongation as well as nuclear division appeared unaffected (data not shown). This was further confirmed by flow cytometry (FACS) (FIG. 4C). […] Namely, apocytes appeared because karyokinesis advances but cytokinesis is inhibited.
Then, asynchronous cells transfected with vector alone (a, d), FLAG-AIM-1 (WT) (b, e) or FLAG-AIM-1 (K-R) (c, f) were grown with (a-c) or without (d-f) DOX for 72 hours and stained with Giemsa's solution. Results are shown in FIG. 4B, wherein upper panels are called as a, b and c from left to right, and lower panels are called as d, e and f from left to right.
as §2
1. The figures in the table mean the percentage of cells having two or more nuclei to β-galactosidase positive cells for NRK-49F cells and KD cells or the percentage of cells having two or more nuclei to the total number of cells for MvlLu cells. For each cell line, 160 or more cells were tested.

Mv1Lu cells [3] = experiment: FACS analysis of DNA content (propidium iodide); type: cell-based, mink; settings: 72 hour-induction
Protocol: as §4
Cell samples were harvested and fixed with ethanol, stained with propidium iodide for FACS analysis.

Mv1Lu cells [4] = experiment: Growth for 2 weeks with or without DOX, Giemsa staining; type: cell-based, mink; settings: grown 2 weeks with or without doxycycline
Protocol: The nuclei of these AIM-1 (K-R)-expressing cells divided 3 to 4 times during 4 to 5 days, resulting in more than 10 nuclei per cell (FIG. 5D).
Mv1Lu cells transfected with FLAG-AIM-1 (WT) or FLAG-AIM-1 (K-R) were grown with or without DOX for 2 weeks and stained with Giemsa's solution.

B1: AIM-1 (K-R): kinase-inactive (dominant negative) FLAG-AIM-1 in which lysine at the 109-position was replaced by arginine, expressed from plasmid (protein, UniProt O55099 1-343, looked up, variant K109R)
Aurora kinase B: MAQKENVYPWPYGSKTSQSGLNTLPQRVLRKEPAVTPAQALMNRSNSQSTAVPGQKLTENKGATALQGSQSRQPFTIDNFEIGRPLGKGKFGNVYLAREKKSRFIVALRILFKSQIEKEGVEHQLRREIEIQAHLKHPNILQLYNYFYDQQRIYLILEYAPRGELYKELQKSGTFDEQRTATIMEELSDALMYCHKKKVIHRDIKPENLLLGLQGELKIADFGWSVHAPSLRRKTMCGTLDYLPPEMIEGRMHNEMVDLWCIGVLCYELMVGNPPFESPSHSETYRRIVKVDLKFPSSMPLGAKDLISKLLKHNPSQRLPLEQVSAHPWVRANSRRVLPPSAL
modifications: N-terminal FLAG tag
Which results are given for B1?
percentage of cells having two or more nuclei to β-galactosidase positive cells (NRK-49F cells): 62%; percentage of cells having two or more nuclei to β-galactosidase positive cells [1]: 38% and 38.4%; nuclei per cell (Mv1Lu cells [2]; Mv1Lu cells expressing construct, during 4 to 5 days): more than 10; percentage of cells having two or more nuclei to the total number of cells (Mv1Lu cells [2]; DOX(+) (not induced)): 7.7%; percentage of cells having two or more nuclei to the total number of cells (Mv1Lu cells [2]; DOX(−) (induced)): 68.4%; percentage of cells having two or more nuclei to the total number of cells (Mv1Lu cells [2]; DOX(−) (induced), listed as FLAG-AIM-1 (K-R)): about 68%; cell population with 4N or 8N DNA / cell cycle pattern (FACS) (Mv1Lu cells [3]): dramatically increased; effect on growth potency (mitotic inhibition) (Mv1Lu cells [4]): miotic inhibition was observed
